Data from US12516294B2, “Method for producing mesenchymal stem cells from living body-derived cell sample containing mesenchymal stem cells” (AJINOMOTO CO., INC., priority 2019, dated 2026).
Entries after “also recorded” stand apart in the source; their conditions may differ.

Tests used:
Assay type in all cases: cell-based
[1] = system: MNC; test: MSC production by the kind of TGFβ receptor inhibitor (Example 4); conditions: 10 μM SB431542, 0.5 μM A-83-01 or 0.5 μM LDN-193189 in medium for seeding; Vitronectin (20-398 aa) coating; day 12 (FIG. 7)
Method: MNC (Lonza) was thawed using the following medium for seeding (1), (2) or (3). The above-mentioned cells were seeded at a concentration of 2.6×10^6 cells/well in a 24-well plate coated with Vitronectin (20-398 aa) (wako) at a concentration of 1.5 μg/cm^2, and cultured under the conditions of 37° C., 5% CO2. The next day of seeding, the entire amount of the medium in the plate was replaced with a medium for seeding (1), (2) or (3), and the medium for seeding (1), (2) or (3) in an amount corresponding to 20% of the amount of the medium in the plate was further added on day 3 and day 5 after seeding. Medium for seeding (1): StemFit (registered trade mark) AKO3N medium (Ajinomoto Co., Inc.) SOLUTION A, ¼ StemFit (registered trade mark) AKO3N medium (Ajinomoto Co., Inc.) SOLUTION B, 3 ng/mL bFGF (peprotech), 10 μM SB431542 (Stemgent), 1/100 Lipid Concentrate (Life Technologies), 10 nM Dexamethasone (Sigma-Aldrich), 10 ng/mL PDGF-BB (FUJIFILM Wako Pure Chemical Industries, Ltd.), 1 mM Lithium Chloride (Sigma-Aldrich)
(§1) Medium for seeding (2): StemFit (registered trade mark) AKO3N medium (Ajinomoto Co., Inc.) SOLUTION A, ¼ StemFit (registered trade mark) AKO3N medium (Ajinomoto Co., Inc.) SOLUTION B, 3 ng/mL bFGF (peprotech), 0.5 μM A-83-01 (wako), 1/100 Lipid Concentrate (Life Technologies), 10 nM Dexamethasone (Sigma-Aldrich), 10 ng/mL PDGF-BB (FUJIFILM Wako Pure Chemical Industries, Ltd.), 1 mM Lithium Chloride (Sigma-Aldrich)
as §1, with “for seeding (3): StemFit (registered” for “for seeding (2): StemFit (registered”, “0.5 μM LDN-193189 (Stemgent), 1/100 Lipid” for “0.5 μM A-83-01 (wako), 1/100 Lipid”, “Chloride (Sigma-Aldrich) […]” for “Chloride (Sigma-Aldrich)”
After confirming that the cells became sub-confluent, the cells were passaged on day 12 after seeding, and the number of cells was measured.

[2] = system: bone marrow mononuclear cells (MNC); test: Formation of MSC cell aggregates from MNC seeded on coated plates in serum-free medium (Example 1); conditions: plate coated at 1.5 μg/cm^2 at MNC seeding, day 5 after seeding, compared with Fibronectin coating
Method: (§2) Due to the limitations of purification techniques, bone marrow mononuclear cells (MNC) separated from bone marrow are slightly contained with mesenchymal stem cells (MSC). In this Example, a method for producing MSC from MNC by using a serum-free medium is verified. Bone marrow mononuclear cells (MNC) (Lonza) were thawed using the following medium for seeding. The above-mentioned cells were seeded at a concentration of 2.6×10^6 cells/well in a 24-well plate coated with Fibronectin (Sigma) or Vitronectin (wako) each at a concentration of 1.5 μg/cm^2, and cultured under the conditions of 37° C., 5% CO2. The next day of seeding, the entire amount of the medium in the plate was replaced with a medium for seeding, and the medium for seeding in an amount corresponding to 20% of the amount of the medium in the plate was further added on day 3 and day 5 after seeding. Medium for seeding: StemFit (registered trade mark) AKO3N medium (Ajinomoto Co., Inc.) SOLUTION A, StemFit (registered trade mark) AKO3N medium (Ajinomoto Co., Inc.) SOLUTION B, 3 ng/mL bFGF (peprotech), 10 μM 5B431542 (Stemgent), 1/100 Lipid Concentrate (Life Technologies), 10 nM Dexamethasone (Sigma-Aldrich), 10 ng/mL PDGF-BB (FUJIFILM Wako Pure Chemical Industries, Ltd.), 1 mM Lithium Chloride (Sigma-Aldrich)

[3] = system: bone marrow mononuclear cells (MNC); test: Number of cells after re-seeding of dissociated aggregates (Example 1); conditions: coating at MNC seeding 1.5 μg/cm^2, aggregates re-seeded day 7, counted day 13, compared with Fibronectin coating
Method: as §2, with “Medium for seeding: StemFit (registered trade mark) AKO3N medium (Ajinomoto Co., Inc.) SOLUTION A, StemFit (registered trade mark) AKO3N medium (Ajinomoto Co., Inc.) SOLUTION B, 3 ng/mL bFGF (peprotech), 10 μM 5B431542 (Stemgent), 1/100 Lipid Concentrate (Life Technologies), 10 nM Dexamethasone (Sigma-Aldrich), 10 ng/mL PDGF-BB (FUJIFILM Wako Pure Chemical Industries, Ltd.), 1 mM Lithium Chloride (Sigma-Aldrich)” left out
After confirming that the cells became sub-confluent, the cells were passaged on day 13 after seeding, and the number of cells was measured.

[4] = system: MNC; test: MSC production from MNC by the kind of Vitronectin (Example 2); conditions: coating 1.5 μg/cm^2, 2.6×10^6 cells/well, 13 days after MNC seeding (FIG. 4)
Method: MNC (Lonza) was thawed using the following medium for seeding (serum-free). The above-mentioned cells were seeded at a concentration of 2.6×10^6 cells/well in 24-well plates coated with Vitronectin (20-398 aa) (wako) (corresponding to amino acid Nos. 1-379 of SEQ ID NO: 1), Vitronectin (VTN-N, 62-478 aa) (Life Technologies) (corresponding to amino acid Nos. 43-459 of SEQ ID NO: 1) or Vitronectin (Full length, 20-478 aa) (Sigma) (corresponding to SEQ ID NO: 1) at a concentration of 1.5 μg/cm^2, and cultured under the conditions of 37° C., 5% CO2. In addition, the cells were seeded at a concentration of 1.6×10^6 cells/well in a 24-well plate coated with Vitronectin (20-398 aa) (wako) or Synthemax II (CORNING) at concentrations of 1.5 μg/cm^2 and 5.0 μg/cm^2, respectively, and cultured under the conditions of 37° C., 5% CO2. Synthemax II is a vitronectin-based synthetic peptide containing RGD motif and flanking sequence. The next day of seeding, the entire amount of the medium in the plate was replaced with a medium for seeding, and the medium for seeding in an amount corresponding to 20% of the amount of the medium in the plate was further added on day 3 and day 5 after seeding. […]
After confirming that the cells became sub-confluent, the cells were passaged on days 12 and 13 after seeding, and the number of cells was measured.

Cc1cccc(-c2nn(C(=S)Nc3ccccc3)cc2-c2ccnc3ccccc23)n1 [A-83-01]
MSC production from MNC (number of MSC) [1]: MSC could be efficiently produced from MNC

c1ccc2c(-c3cnn4cc(-c5ccc(N6CCNCC6)cc5)cnc34)ccnc2c1 [LDN-193189]
MSC production from MNC (number of MSC) [1]: MSC could be efficiently produced from MNC

NC(=O)c1ccc(-c2nc(-c3ccc4c(c3)OCO4)c(-c3ccccn3)[nH]2)cc1 [SB431542]
MSC production from MNC (number of MSC) [1]: MSC could be efficiently produced from MNC

B1: Vitronectin: Vitronectin (wako) used to coat 24-well plates at 1.5 μg/cm^2 in Example 1 (protein, UniProt P04004 20-478, looked up)
Vitronectin: DQESCKGRCTEGFNVDKKCQCDELCSYYQSCCTDYTAECKPQVTRGDVFTMPEDEYTVYDDGEEKNNATVHEQVGGPSLTSDLQAQSKGNPEQTPVLKPEEEAPAPEVGASKPEGIDSRPETLHPGRPQPPAEEELCSGKPFDAFTDLKNGSLFAFRGQYCYELDEKAVRPGYPKLIRDVWGIEGPIDAAFTRINCQGKTYLFKGSQYWRFEDGVLDPDYPRNISDGFDGIPDNVDAALALPAHSYSGRERVYFFKGKQYWEYQFQHQPSQEECEGSSLSAVFEHFAMMQRDSWEDIFELLFWGRTSAGTRQPQFISRDWHGVPGQVDAAMAGRIYISGMAPRPSLAKKQRFRHRNRKGYRSQRGHSRGRNQNSRRPSRATWLSLFSSEESNLGANNYDDYRMDWLVPATCEPIQSVFFFSGDKYYRVNLRTRRVDTVDPPYPRSIAQYWLGCPAPGHL
number of cell aggregates obtained [2]: More cell aggregates were formed; also recorded: larger
number of cells obtained by the subsequent re-seeding [3]: larger
number of cells obtained by the subsequent re-seeding ([3]; listed as vitronectin): remarkably higher

B2: Vitronectin (20-398 aa) (wako): commercially available partial peptide of vitronectin, corresponding to amino acid Nos. 1-379 of SEQ ID NO: 1 (protein, listed as Homo sapiens)
chain: DQESCKGRCTEGFNVDKKCQCDELCSYYQSCCTDYTAECKPQVTRGDVFTMPEDEYTVYDDGEEKNNATVHEQVGGPSLTSDLQAQSKGNPEQTPVLKPEEEAPAPEVGASKPEGIDSRPETLHPGRPQPPAEEELCSGKPFDAFTDLKNGSLFAFRGQYCYELDEKAVRPGYPKLIRDVWGIEGPIDAAFTRINCQGKTYLFKGSQYWRFEDGVLDPDYPRNISDGFDGIPDNVDAALALPAHSYSGRERVYFFKGKQYWEYQFQHQPSQEECEGSSLSAVFEHFAMMQRDSWEDIFELLFWGRTSAGTRQPQFISRDWHGVPGQVDAAMAGRIYISGMAPRPSLAKKQRFRHRNRKGYRSQRGHSRGRNQNSRRPSR
MSC production from MNC (number of MSC) [4]: could produce MSC most efficiently from MNC
